Source: publication PMC5551698 (The Journal of Cell Biology, 2017)

Target: His-CRMP-1 (human CRMP-1) (human, UniProt Q14194 1-572)
Experiment: pull-down

Sequence of His-CRMP-1 (human CRMP-1) (Q14194 whole entry): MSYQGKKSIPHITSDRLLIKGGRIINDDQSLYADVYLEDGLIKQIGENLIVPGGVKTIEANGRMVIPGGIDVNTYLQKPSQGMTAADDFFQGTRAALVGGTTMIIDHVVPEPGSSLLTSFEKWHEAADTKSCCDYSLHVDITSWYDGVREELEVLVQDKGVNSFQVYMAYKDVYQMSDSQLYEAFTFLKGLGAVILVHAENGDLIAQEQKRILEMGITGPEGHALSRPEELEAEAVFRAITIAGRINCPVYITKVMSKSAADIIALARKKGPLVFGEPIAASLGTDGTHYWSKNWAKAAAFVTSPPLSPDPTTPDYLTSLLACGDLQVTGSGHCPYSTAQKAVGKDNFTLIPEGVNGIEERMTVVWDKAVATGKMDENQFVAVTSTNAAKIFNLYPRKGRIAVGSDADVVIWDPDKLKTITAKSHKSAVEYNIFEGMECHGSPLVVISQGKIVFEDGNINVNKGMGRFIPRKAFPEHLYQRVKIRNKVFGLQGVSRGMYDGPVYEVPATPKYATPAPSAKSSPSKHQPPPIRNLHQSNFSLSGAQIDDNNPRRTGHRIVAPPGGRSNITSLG

B1: MBP-EVL (human EVL, full length) (natural protein, UniProt Q9UI08 1-416, looked up)
chain: MSEQSICQARASVMVYDDTSKKWVPIKPGQQGFSRINIYHNTASNTFRVVGVKLQDQQVVINYSIVKGLKYNQATPTFHQWRDARQVYGLNFASKEEATTFSNAMLFALNIMNSQEGGPSSQRQVQNGPSPDEMDIQRRQVMEQHQQQRQESLERRTSATGPILPPGHPSSAASAPVSCSGPPPPPPPPVPPPPTGATPPPPPPLPAGGAQGSSHDESSMSGLAAAIAGAKLRRVQRPEDASGGSSPSGTSKSDANRASSGGGGGGLMEEMNKLLAKRRKAASQSDKPAEKKEDESQMEDPSTSPSPGTRAASQPPNSSEAGRKPWERSNSVEKPVSSILSRTPSVAKSPEAKSPLQSQPHSRMKPAGSVNDMALDAFDLDRMKQEILEEVVRELHKVKEEIIDAIRQELSGISTT
  Kd: 2000 nM
